# Patent publication US8936925B2, “Reconstitution of 5-enolpyruvylshikimate-3-phosphate synthase activity by fragment complementation” (priority 2004, dated 2015)
# B1: C155: E. coli EPSPS C-terminal fragment, residue 155 to C-terminus (protein, UniProt P0A6D3 155-427, looked up, fragment)
# chain: GGFTGGNVDVDGSVSSQFLTALLMTAPLAPEDTVIRIKGDLVSKPYIDITLNLMKTFGVEIENQHYQQFVVKGGQSYQSPGTYLVEGDASSASYFLAAAAIKGGTVKVTGIGRNSMQGDIRFADVLEKMGATICWGDDYISCTRGELNAIDMDMNHIPDAAMTIATAALFAKGTTTLRNIYNWRVKETDRLFAMATELRKVGAEVEEGHDYIRITPPEKLNFAEIATYNDHRMAMCFSLVALSDTPVTILDPKCTAKTFPDYFEQLARISQAA
# B2: C219: E. coli EPSPS C-terminal fragment, residue 219 to C-terminus (protein, UniProt P0A6D3 219-427, looked up, fragment)
# chain: HYQQFVVKGGQSYQSPGTYLVEGDASSASYFLAAAAIKGGTVKVTGIGRNSMQGDIRFADVLEKMGATICWGDDYISCTRGELNAIDMDMNHIPDAAMTIATAALFAKGTTTLRNIYNWRVKETDRLFAMATELRKVGAEVEEGHDYIRITPPEKLNFAEIATYNDHRMAMCFSLVALSDTPVTILDPKCTAKTFPDYFEQLARISQAA
# B3: C185: E. coli EPSPS C-terminal fragment, residue 185 to C-terminus (protein, UniProt P0A6D3 185-427, looked up, fragment)
# chain: EDTVIRIKGDLVSKPYIDITLNLMKTFGVEIENQHYQQFVVKGGQSYQSPGTYLVEGDASSASYFLAAAAIKGGTVKVTGIGRNSMQGDIRFADVLEKMGATICWGDDYISCTRGELNAIDMDMNHIPDAAMTIATAALFAKGTTTLRNIYNWRVKETDRLFAMATELRKVGAEVEEGHDYIRITPPEKLNFAEIATYNDHRMAMCFSLVALSDTPVTILDPKCTAKTFPDYFEQLARISQAA
# B4: C183: E. coli EPSPS C-terminal fragment, residue 183 to C-terminus (protein, UniProt P0A6D3 183-427, looked up, fragment)
# chain: APEDTVIRIKGDLVSKPYIDITLNLMKTFGVEIENQHYQQFVVKGGQSYQSPGTYLVEGDASSASYFLAAAAIKGGTVKVTGIGRNSMQGDIRFADVLEKMGATICWGDDYISCTRGELNAIDMDMNHIPDAAMTIATAALFAKGTTTLRNIYNWRVKETDRLFAMATELRKVGAEVEEGHDYIRITPPEKLNFAEIATYNDHRMAMCFSLVALSDTPVTILDPKCTAKTFPDYFEQLARISQAA
# B5: C86: E. coli EPSPS C-terminal fragment, residue 86 to C-terminus (protein, UniProt P0A6D3 86-427, looked up, fragment)
# chain: GALELFLGNAGTAMRPLAAALCLGSNDIVLTGEPRMKERPIGHLVDALRLGGAKITYLEQENYPPLRLQGGFTGGNVDVDGSVSSQFLTALLMTAPLAPEDTVIRIKGDLVSKPYIDITLNLMKTFGVEIENQHYQQFVVKGGQSYQSPGTYLVEGDASSASYFLAAAAIKGGTVKVTGIGRNSMQGDIRFADVLEKMGATICWGDDYISCTRGELNAIDMDMNHIPDAAMTIATAALFAKGTTTLRNIYNWRVKETDRLFAMATELRKVGAEVEEGHDYIRITPPEKLNFAEIATYNDHRMAMCFSLVALSDTPVTILDPKCTAKTFPDYFEQLARISQAA
# B6: C105: E. coli EPSPS C-terminal fragment, residue 105 to C-terminus (protein, UniProt P0A6D3 105-427, looked up, fragment)
# chain: ALCLGSNDIVLTGEPRMKERPIGHLVDALRLGGAKITYLEQENYPPLRLQGGFTGGNVDVDGSVSSQFLTALLMTAPLAPEDTVIRIKGDLVSKPYIDITLNLMKTFGVEIENQHYQQFVVKGGQSYQSPGTYLVEGDASSASYFLAAAAIKGGTVKVTGIGRNSMQGDIRFADVLEKMGATICWGDDYISCTRGELNAIDMDMNHIPDAAMTIATAALFAKGTTTLRNIYNWRVKETDRLFAMATELRKVGAEVEEGHDYIRITPPEKLNFAEIATYNDHRMAMCFSLVALSDTPVTILDPKCTAKTFPDYFEQLARISQAA
# B7: C166: E. coli EPSPS C-terminal fragment, residue 166 to C-terminus (protein, UniProt P0A6D3 166-427, looked up, fragment)
# chain: GSVSSQFLTALLMTAPLAPEDTVIRIKGDLVSKPYIDITLNLMKTFGVEIENQHYQQFVVKGGQSYQSPGTYLVEGDASSASYFLAAAAIKGGTVKVTGIGRNSMQGDIRFADVLEKMGATICWGDDYISCTRGELNAIDMDMNHIPDAAMTIATAALFAKGTTTLRNIYNWRVKETDRLFAMATELRKVGAEVEEGHDYIRITPPEKLNFAEIATYNDHRMAMCFSLVALSDTPVTILDPKCTAKTFPDYFEQLARISQAA
# B8: N154: E. coli EPSPS N-terminal fragment, N-terminus to residue 154 (protein, UniProt P0A6D3 1-154, looked up, fragment)
# chain: MESLTLQPIARVDGTINLPGSKSVSNRALLLAALAHGKTVLTNLLDSDDVRHMLNALTALGVSYTLSADRTRCEIIGNGGPLHAEGALELFLGNAGTAMRPLAAALCLGSNDIVLTGEPRMKERPIGHLVDALRLGGAKITYLEQENYPPLRLQ
# B9: N165: E. coli EPSPS N-terminal fragment, N-terminus to residue 165 (protein, UniProt P0A6D3 1-165, looked up, fragment)
# chain: MESLTLQPIARVDGTINLPGSKSVSNRALLLAALAHGKTVLTNLLDSDDVRHMLNALTALGVSYTLSADRTRCEIIGNGGPLHAEGALELFLGNAGTAMRPLAAALCLGSNDIVLTGEPRMKERPIGHLVDALRLGGAKITYLEQENYPPLRLQGGFTGGNVDVD
# B10: N218: E. coli EPSPS N-terminal fragment, N-terminus to residue 218 (protein, UniProt P0A6D3 1-218, looked up, fragment)
# chain: MESLTLQPIARVDGTINLPGSKSVSNRALLLAALAHGKTVLTNLLDSDDVRHMLNALTALGVSYTLSADRTRCEIIGNGGPLHAEGALELFLGNAGTAMRPLAAALCLGSNDIVLTGEPRMKERPIGHLVDALRLGGAKITYLEQENYPPLRLQGGFTGGNVDVDGSVSSQFLTALLMTAPLAPEDTVIRIKGDLVSKPYIDITLNLMKTFGVEIENQ
# B11: N85: E. coli EPSPS N-terminal fragment, N-terminus to residue 85 (protein, UniProt P0A6D3 1-85, looked up, fragment)
# chain: MESLTLQPIARVDGTINLPGSKSVSNRALLLAALAHGKTVLTNLLDSDDVRHMLNALTALGVSYTLSADRTRCEIIGNGGPLHAE
# B12: N184: E. coli EPSPS N-terminal fragment, N-terminus to residue 184 (protein, UniProt P0A6D3 1-184, looked up, fragment)
# chain: MESLTLQPIARVDGTINLPGSKSVSNRALLLAALAHGKTVLTNLLDSDDVRHMLNALTALGVSYTLSADRTRCEIIGNGGPLHAEGALELFLGNAGTAMRPLAAALCLGSNDIVLTGEPRMKERPIGHLVDALRLGGAKITYLEQENYPPLRLQGGFTGGNVDVDGSVSSQFLTALLMTAPLAP
# B13: N104: E. coli EPSPS N-terminal fragment, N-terminus to residue 104 (protein, UniProt P0A6D3 1-104, looked up, fragment)
# chain: MESLTLQPIARVDGTINLPGSKSVSNRALLLAALAHGKTVLTNLLDSDDVRHMLNALTALGVSYTLSADRTRCEIIGNGGPLHAEGALELFLGNAGTAMRPLAA
# B14: N182: E. coli EPSPS N-terminal fragment, N-terminus to residue 182 (protein, UniProt P0A6D3 1-182, looked up, fragment)
# chain: MESLTLQPIARVDGTINLPGSKSVSNRALLLAALAHGKTVLTNLLDSDDVRHMLNALTALGVSYTLSADRTRCEIIGNGGPLHAEGALELFLGNAGTAMRPLAAALCLGSNDIVLTGEPRMKERPIGHLVDALRLGGAKITYLEQENYPPLRLQGGFTGGNVDVDGSVSSQFLTALLMTAPL
# Tested on: aroA gene-mutant E. coli strain AB2829
# Test: In vivo complementation: growth on solid M63 restrictive medium
# Type: cell-based
# Design: key: −: failed to grow; +: able to grow
# Conditions: C-terminal fragment alone
# Excerpt: The pKU2100 plasmid constructed as described above and corresponding pACYC1184 plasmid were introduced separately or together into the strain AB2829 deficient in E. coli aroA gene. Then, the strain was streaked on solid M63 restrictive medium and cultured overnight to determine the growth.
# In order to test if EPSPS achieves fragment complementation after in vivo expression, genes encoding EPSPS N-terminal peptides were constructed into pACYC184, and genes encoding EPSPS C-terminal peptides were constructed into pBR322 (see the section Materials and Methods for the detailed construction method). Afterwards, these plasmids were introduced into aroA gene-mutant E. coli strain AB2829. EPSPS activity of the protein fragments encoded by these genes was determined by the growth of the strains on M63 restrictive medium.
# The pACYC184 and pBR322 plasmids are able to be expressed in the same bacterial cell since they have replicons p15A and ColE1 respectively. In this regard, a pACYC184 plasmid was co-introduced into aroA gene-mutant E. coli strain AB2829 together with a corresponding pKU2100 plasmid, wherein the N-terminal peptide encoded by the pACYC184 plasmid and C-terminal peptide encoded by the pKU2100 plasmid are the two fragments divided at the same site from EPSPS. The resulting strains are streaked on M63 restrictive medium, and cultured at 37° C.
# The pBR322 plasmids constructed in section 3.5 a and their relevant pACYC1184 plasmids constructed in section 3.5 b were introduced respectively or together into E. coli strain AB2829 deficient in aroA gene. Then the strains were streaked on solid M63 restrictive medium and cultured overnight to test the growth.
row,Molecule,"complementation condition, C-terminal"
1,"C372: E. coli EPSPS C-terminal fragment, residue 372 to C-terminus (EKLNFAEIATYNDHRMAMCFSLVALSDTPVTILDPKCTAKTFPDYFEQLARISQAA; UniProt P0A6D3 372-427, looked up, fragment)",−
2,"C377: E. coli EPSPS C-terminal fragment, residue 377 to C-terminus (AEIATYNDHRMAMCFSLVALSDTPVTILDPKCTAKTFPDYFEQLARISQAA; UniProt P0A6D3 377-427, looked up, fragment)",−
3,"C384: E. coli EPSPS C-terminal fragment, residue 384 to C-terminus (DHRMAMCFSLVALSDTPVTILDPKCTAKTFPDYFEQLARISQAA; UniProt P0A6D3 384-427, looked up, fragment)",−
4,B1,−
5,B2,−
6,B3,−
7,B4,−
8,B5,−
9,B6,−
10,B7,−

# Same assay, conditions: N-terminal fragment alone
row,Molecule,"complementation condition, N-terminal"
1,"N31: E. coli EPSPS N-terminal fragment, N-terminus to residue 31 (MESLTLQPIARVDGTINLPGSKSVSNRALLL; UniProt P0A6D3 1-31, looked up, fragment)",−
2,B8,−
3,B9,−
4,B10,−
5,B11,−
6,B12,−
7,B13,−
8,B14,−
